Ends that are not written are not given here.
Key:
human C1q = target: T1, human C1q (human, UniProt P02745 23-245; P02746 28-253; P02747 29-245); assay: SPR, C1q on CM5 chip, antibody flowed
T1 construct: also called hC1q; human complement
Protocol: (§1) Binding affinity of the antibody Fc regions to Fcγ receptors or complement were measured using BIAcore as described above. Briefly, purified human or murine Fcγ receptors (from R&D Systems) and human C1q (from Quidel) were immobilized on BIAcore CM5 chip by amine chemistry. Serial dilutions of monoclonal antibodies (ranging from 2 nM to the maximum concentration as indicated in Tables 16 and 17) were injected. HBS-EP (0.01M HEPES, pH 7.4, 0.15 M NaCl, 3 mM EDTA, 0.005% Surfactant P20) as running and sample buffer. Binding data were analyzed using 1:1 langmuir interaction model for high affinity interactions, or steady state affinity model for low affinity interactions.

murine FcγRI = target: T2, murine FcγRI (murine, UniProt P26151 25-297, limits assumed); assay: SPR, receptor on CM5 chip, antibody flowed
T2 construct: Bought; also called mFcγRI
T2 sequence (looked up): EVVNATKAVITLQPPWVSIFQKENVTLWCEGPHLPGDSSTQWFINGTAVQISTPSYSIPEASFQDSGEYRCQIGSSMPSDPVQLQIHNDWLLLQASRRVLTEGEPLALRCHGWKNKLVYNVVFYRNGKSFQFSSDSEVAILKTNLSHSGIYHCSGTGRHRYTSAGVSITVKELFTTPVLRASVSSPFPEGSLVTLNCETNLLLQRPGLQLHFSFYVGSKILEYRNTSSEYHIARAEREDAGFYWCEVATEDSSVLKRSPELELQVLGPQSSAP
Protocol: as §1

murine FcγRIIb = target: T3, murine FcγRIIb (murine, UniProt P08101 40-217, limits assumed); assay: SPR, receptor on CM5 chip, antibody flowed
T3 construct: Bought; also called mFcγRIIb
T3 sequence (looked up): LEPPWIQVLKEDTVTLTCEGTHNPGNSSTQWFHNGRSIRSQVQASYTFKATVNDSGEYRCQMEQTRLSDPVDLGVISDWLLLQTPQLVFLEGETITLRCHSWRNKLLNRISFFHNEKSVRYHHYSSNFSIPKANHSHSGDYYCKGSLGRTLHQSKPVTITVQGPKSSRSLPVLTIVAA
Protocol: as §1

murine FcγRIII = target: T4, murine FcγRIII (murine, UniProt P08508 31-215, limits assumed); assay: SPR, receptor on CM5 chip, antibody flowed
T4 construct: Bought; also called mFcγRIII
T4 sequence (looked up): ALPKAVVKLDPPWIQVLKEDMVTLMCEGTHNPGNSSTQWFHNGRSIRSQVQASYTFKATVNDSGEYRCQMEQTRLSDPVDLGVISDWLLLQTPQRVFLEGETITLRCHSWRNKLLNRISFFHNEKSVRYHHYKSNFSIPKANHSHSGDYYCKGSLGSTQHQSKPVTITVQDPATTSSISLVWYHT
Protocol: as §1

human FcγRI = target: T5, human FcγRI (human, UniProt P12314 16-288, limits assumed); assay: SPR, receptor on CM5 chip, antibody flowed
T5 construct: Bought
Protocol: as §1

human FcγRIIb/c = target: T6, human FcγRIIb/c (human, UniProt P31994 46-217, limits assumed); assay: SPR, receptor on CM5 chip, antibody flowed
T6 construct: Bought
T6 sequence (looked up): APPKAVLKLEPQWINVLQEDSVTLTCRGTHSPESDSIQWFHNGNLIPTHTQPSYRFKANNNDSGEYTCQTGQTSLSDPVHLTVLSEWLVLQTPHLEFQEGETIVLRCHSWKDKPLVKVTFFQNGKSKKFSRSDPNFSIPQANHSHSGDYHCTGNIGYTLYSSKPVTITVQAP
Protocol: as §1

Aβ1-43 peptide = target: T7, Aβ1-43 peptide (human); assay: SPR competition: soluble peptide against immobilized Aβ1-40, Fab at 50 nM
T7 construct: also called 1-43 (WT)
Protocol: (§2) To determine the epitope on Aβ polypeptide that is recognized by antibody 9TL, Surface Plasmon Resonance (SPR, Biacore 3000) binding analysis was used. Aβ₁₋₄₀ polypeptide coupled to biotin (Global Peptide Services, CO) was immobilized on a streptavidin-coated chip (SA chip). The binding of Aβ antibodies Fab fragments (at 50 nM) to the immobilized Aβ₁₋₄₀ in the absence or presence of different soluble fragments of the Aβ peptide (at 10 μM, from American Peptide Company Inc., CA). Amino acid sequences of Aβ₁₋₄₀, Aβ₁₋₄₂, and Aβ₁₋₄₃ are shown in below in Table 4. The Aβ peptides which displaced binding of antibody 9TL Fab fragment to Aβ₁₋₄₀ were Aβ₂₈₋₄₀, Aβ₁₋₄₀, Aβ₃₃₋₄₀, and Aβ₁₇₋₄₀, respectively (FIG. 2). Thus, antibody 9TL binds to a C-terminal peptide (33-40) of Aβ₁₋₄₀.

Aβ28-42 peptide = target: T8, Aβ28-42 peptide (human); assay: as above
T8 peptide: KGAIIGLMVGGVVIA
Protocol: as §2

[1] = target: T9, biotinylated Aβ 20-34 peptide with C-terminal glycine (human, also: biotinylated, position not given here); assay: ELISA: biotinylated peptide on streptavidin plate, goat anti-human kappa HRP, absorbance at 450 nm
T9 peptide: FAEDVGSNKGAIIGLG

[2] = target: T10, biotinylated Aβ 21-35 peptide with C-terminal glycine (human, also: biotinylated, position not given here); assay: as above
T10 peptide: AEDVGSNKGAIIGLMG

[3] = target: T11, biotinylated Aβ 22-36 peptide with C-terminal glycine (human, also: biotinylated, position not given here); assay: as above
T11 peptide: EDVGSNKGAIIGLMVG

[4] = target: T12, biotinylated Aβ 23-37 peptide with C-terminal glycine (human, also: biotinylated, position not given here); assay: as above
T12 peptide: DVGSNKGAIIGLMVGG

[5] = target: T13, biotinylated Aβ 24-38 peptide with C-terminal glycine (human, also: biotinylated, position not given here); assay: as above
T13 peptide: VGSNKGAIIGLMVGGG

[6] = target: T14, biotinylated Aβ 25-39 peptide with C-terminal glycine (human, also: biotinylated, position not given here); assay: as above
T14 peptide: GSNKGAIIGLMVGGVG

T1 sequence (P02745 23-245 limits assumed, chain 1 of 3): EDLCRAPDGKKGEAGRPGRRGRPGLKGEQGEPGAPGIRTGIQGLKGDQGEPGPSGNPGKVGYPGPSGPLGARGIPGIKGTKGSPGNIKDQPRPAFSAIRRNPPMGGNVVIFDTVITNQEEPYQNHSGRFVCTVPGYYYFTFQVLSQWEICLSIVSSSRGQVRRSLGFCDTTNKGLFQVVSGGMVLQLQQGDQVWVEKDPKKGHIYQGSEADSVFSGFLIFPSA
T1 sequence (P02746 28-253 limits assumed, chain 2 of 3): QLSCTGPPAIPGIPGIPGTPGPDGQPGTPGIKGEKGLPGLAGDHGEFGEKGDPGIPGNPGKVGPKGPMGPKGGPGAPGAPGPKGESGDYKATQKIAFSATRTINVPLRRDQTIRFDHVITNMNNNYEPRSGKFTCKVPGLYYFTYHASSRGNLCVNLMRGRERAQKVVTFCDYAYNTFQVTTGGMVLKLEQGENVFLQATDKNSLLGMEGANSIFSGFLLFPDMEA
T1 sequence (P02747 29-245 limits assumed, chain 3 of 3): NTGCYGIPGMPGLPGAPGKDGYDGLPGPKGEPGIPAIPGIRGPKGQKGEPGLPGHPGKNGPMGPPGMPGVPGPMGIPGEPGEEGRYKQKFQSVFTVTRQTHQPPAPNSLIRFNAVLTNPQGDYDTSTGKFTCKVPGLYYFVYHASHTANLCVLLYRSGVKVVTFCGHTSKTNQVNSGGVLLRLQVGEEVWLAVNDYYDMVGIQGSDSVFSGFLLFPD
T5 sequence (P12314 16-288 limits assumed): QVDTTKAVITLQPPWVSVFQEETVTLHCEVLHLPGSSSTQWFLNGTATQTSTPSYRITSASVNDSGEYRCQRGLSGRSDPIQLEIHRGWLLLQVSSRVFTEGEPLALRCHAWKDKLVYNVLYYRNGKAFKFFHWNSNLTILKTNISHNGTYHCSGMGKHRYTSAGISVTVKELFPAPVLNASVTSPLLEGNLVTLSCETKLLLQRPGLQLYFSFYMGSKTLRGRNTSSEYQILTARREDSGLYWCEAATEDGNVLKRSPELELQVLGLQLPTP
T7 sequence (peptide, as listed by the source): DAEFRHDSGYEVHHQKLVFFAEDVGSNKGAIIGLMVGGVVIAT

B1: antibody 9TL (antibody, human IgG2, kappa)
heavy: QVQLVQSGAEVKKPGASVKVSCKASGYYTEAYYIHWVRQAPGQGLEWMGRIDPATGNTKYAPRLQDRVTMTRDTSTSTVYMELSSLRSEDTAVYYCASLYSLPVYWGQGTTVTVSSASTKGPSVFPLAPCSRSTSESTAALGCLVKDYFPEPVTVSWNSGALTSGVHTFPAVLQSSGLYSLSSVVTVPSSNFGTQTYTCNVDHKPSNTKVDKTVERKCCVECPPCPAPPVAGPSVFLFPPKPKDTLMISRTPEVTCVVVDVSHEDPEVQFNWYVDGVEVHNAKTKPREEQFNSTFRVVSVLTVVHQDWLNGKEYKCKVSNKGLPSSIEKTISKTKGQPREPQVYTLPPSREEMTKNQVSLTCLVKGFYPSDIAVEWESNGQPENNYKTTPPMLDSDGSFFLYSKLTVDKSRWQQGNVFSCSVMHEALHNHYTQKSLSLSPGK
light: DVVMTQSPLSLPVTLGQPASISCKSSQSLLYSDAKTYLNWFQQRPGQSPRRLIYQISRLDPGVPDRFSGSGSGTDFTLKISRVEAEDVGVYYCLQGTHYPVLFGQGTRLEIKRTVAAPSVFIFPPSDEQLKSGTASVVCLLNNFYPREAKVQWKVDNALQSGNSQESVTEQDSKDSTYSLSSTLTLSKADYEKHKVYACEVTHQGLSSPVTKSFNRGEC
notes: Full antibody; human IgG2a constant region with A330P331 to S330S331, human kappa; transient expression in HEK 293 cells; also called 9TL mAb; 9TL(hIgG2Δa); copies: 2 + 2
**Q.** Does B1 bind (human C1q)?
**A.** no binding (tested: 30,000 nM)

**Q.** Does B1 bind (murine FcγRI)?
**A.** no binding (tested: 30,000 nM)

**Q.** Does B1 bind (murine FcγRIIb)?
**A.** no binding (tested: 30,000 nM)

**Q.** Does B1 bind (murine FcγRIII)?
**A.** no binding (tested: 30,000 nM)

**Q.** Does B1 bind (human FcγRI)?
**A.** no binding (tested: 30 µM)

**Q.** And the Kd (human FcγRIIb/c)?
**A.** 61 µM

B2: antibody 9TL Fab fragment (Fab, V domains shown)
VH: QVQLVQSGAEVKKPGASVKVSCKASGYYTEAYYIHWVRQAPGQGLEWMGRIDPATGNTKYAPRLQDRVTMTRDTSTSTVYMELSSLRSEDTAVYYCASLYSLPVYWGQGTTVTVSS
VL: DVVMTQSPLSLPVTLGQPASISCKSSQSLLYSDAKTYLNWFQQRPGQSPRRLIYQISRLDPGVPDRFSGSGSGTDFTLKISRVEAEDVGVYYCLQGTHYPVLFGQGTRLEIKR
notes: Fab expressed in E. coli
**Q.** Does B2 bind (Aβ1-43 peptide)?
**A.** no binding (tested: 10 µM peptide)

**Q.** Does B2 bind (Aβ28-42 peptide)?
**A.** no binding (tested: 10 µM peptide)

B3: antibody 6G (antibody, human IgG2, kappa, V domains shown)
VH: QVQLVQSGAEVKKPGASVKVSCKASGYTFTTYAIHWVRQAPGQGLEWMGFTSPYSGVSNYNQKFKGRVTMTRDTSTSTVYMELSSLRSEDTAVYYCARFDNYDRGYVRDYWGQGTLVTVSS
VL: DIVMTQSPDSLAVSLGERATINCRASESVDNDRISFLNWYQQKPGQPPKLLIYAATKQGTGVPDRFSGSGSGTDFTLTISSLQAEDVAVYYCQQSKEFPWSFGGGTKVEIKR
notes: Full antibody with modified human IgG2a (A330P331 to S330S331) and human kappa
**Q.** Which results are given for B3?
**A.** absorbance at 450 nm [1]: > 3; absorbance at 450 nm [2]: > 3; absorbance at 450 nm [3]: > 3; absorbance at 450 nm [4]: 2.3; absorbance at 450 nm [5]: 2.1; absorbance at 450 nm [6]: 1.5

Reference: patent publication US20060057701A1 (RINAT NEUROSCIENCE, published 2006)
